Reference: US20190330277A1 (PIRBRIGHT INSTITUTE, published 2019)

B1: MPE8 antibody (antibody, V domains shown)
VH: EVQLVESGGGLVKPGGSLRLSCAASGFTFSSYSMNWVRQAPGKGLEWVSSISASSSYSDYADSAKGRFTISRDNAKTSLFLQMNSLRAEDTAIYFCARARATGYSSITPYFDIWGQGTLVTVSS
VL: QSVVTQTPSVSGAPGQRVTISCTGSSSNIGAGYDVHWYQQLPGTAPKLLIYDNNNRPSGVPDRFSASKSGTSASLAITGLQAEDEADYYCQSYDRNLSGVFGTGTKVTVL
notes: also called mAb MPE8
B2: D25 antibody (antibody, V domains shown)
VH: QVQLVQSGAEVKKPGSSVMVSCQASGGPLRNYIINWLRQAPGQGPEWMGGIIPVLGTVHYAPKFQGRVTITADESTDTAYIHLISLRSEDTAMYYCATETALVVSTTYLPHYFDNWGQGTLVTVSS
VL: DIQMTQSPSSLSAAVGDRVTITCQASQDIVNYLNWYQQKPGKAPKLLIYVASNLETGVPSRFSGSGSGTDFSLTISSLQPEDVATYYCQQYDNLPLTFGGGTKVEIK
notes: also called mAb D25

How the values were obtained:
Experiment in all cases: ELISA, variant from culture supernatant on Ni-NTA plate
[1] = molecular target: T1, RB94 hu/bov DS-Cav1 Long FdPL;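 further: antigenic evaluation by ELISA of constructs expressed at small scale in 96-well plates after transient plasmid transfection of cells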
T1 construct: also called sc-v20
Protocol: (§1) Initial assessment of all constructs were performed using a 96-well microplate format for high throughput expression followed by an ELISA-based antigenic evaluation as described previously 17. […] Plasmid DNA and TrueFect-Max (United BioSystems, MD) were mixed and added to the growing cells, and the 96-well plate incubated at 37° C., 5% CO2. One day post transfection, enriched medium (high glucose DMEM plus 25% ultra-low IgG fetal bovine serum, 2× nonessential amino acids, 1× glutamine) was added to each well, and the 96-well plate was returned to the incubator for continuous culture.

[2] = molecular target: T2, RB94 hu/bov DS-CAV1 A149C-Y458C Long
T2 construct: also called DS2-v7
Protocol: as §1

[3] = molecular target: T3, 391-2-DS-Cav1-sc9deleteFS 98C-361C
T3 construct: also called DS2-v8
Protocol: as §1

[4] = molecular target: T4, 391-2-DS-Cav1-sc9deleteFS 99C-361C
T4 construct: also called DS2-v15
Protocol: as §1

[5] = molecular target: T5, 391-2-DS-Cav1-sc9deleteFS 99C-362C
T5 construct: also called DS2-v16
Protocol: as §1

[6] = molecular target: T6, 391-2-DS-Cav1_ sc9_S398C-S485C
T6 construct: also called DS2-v23
Protocol: as §1

[7] = molecular target: T7, 391-2-DS-Cav1_ S398C-S485C
T7 construct: also called DS2-v25
Protocol: as §1

[8] = molecular target: 391-2-DS-Cav1_ I28C-G464C
Protocol: as §1

[9] = molecular target: T8, 391-2-DS-Cav1-sc9deleteFS 100C-361C
T8 construct: also called DS2-v29
Protocol: as §1

[10] = molecular target: T9, RB94 sc9 DS-CAV1 A149C-Y458C L373R Long S190V
T9 construct: also called DS2-v30
Protocol: as §1

Row | Binder | ELISA binding value [1] | ELISA binding value [2] | ELISA binding value [3] | ELISA binding value [4] | ELISA binding value [5] | ELISA binding value [6] | ELISA binding value [7] | ELISA binding value [8] | ELISA binding value [9] | ELISA binding value [10]
1 | B1 | 1.38 | 0.29 | 0.43 | 0.229 | 0.2 | 0.0849 | 0.0824 | 0.0815 | 0.0592 | 0.0477
2 | B2 |  | 0.274 | 0.271 | 0.198 | 0.197 | 0.144 | 0.141 | 0.139 | 0.133 | 0.133
